Experimental data: the supplement of paper PMC10724198
± gives the standard deviation of the averaged measurements.

The sequences below were run on Saccharomyces cerevisiae (assay: protein stability index of tFT-peptide fusion (C-terminal peptide) (PSI (0-1 scale)); higher = more stable (slower turnover)). Conditions: genetic background: wild type; temperature: 30 C.
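Note: PSI is a weighted mean of sequencing reads over stability bins, variants kept only with over 10 reads, mCherry proximal and sfGFP distal, peptide attached via GGGS linker.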

VPPLFALAPPAP and VPPLPPDSCTVT are within error of each other in protein stability index: 0.681 ± 0.029 for the first, 0.699 ± 0.073 for the second.

VPPPPPCTIPFP and VPSLAVPPEGSV are the same in protein stability index: 0.678 ± 0.07 for the first, 0.678 ± 0.06 for the second.

Compared with VPSPLPLPPLAP, VPVAGSFVGIRF is lower in protein stability index: 0.722 ± 0.036 for the first, 0.6753 ± 0.004 for the second.

VPWVFVYGEGVR and VPYLPPHLPLPP are within error of each other in protein stability index: 0.734 ± 0.024 for the first, 0.71 ± 0.043 for the second.

First: VQASQFRFSVPL
Second: VQAWYWGFFCST
The protein stability index of the first is lower: 0.632 ± 0.013 for the first, 0.785 ± 0.036 for the second.

VQPAGLEFGPLS and VQSVIEPSIRYA are within error of each other in protein stability index: 0.6457 ± 0.0015 for the first, 0.648 ± 0.014 for the second.

Going from VRCSLPSPSPRP to VRDGPRCPVACP, the protein stability index falls from 0.77 ± 0.015 to 0.621 ± 0.02.

Going from VREMGSPGLYRP to VRFRCIPGSPVC, the protein stability index falls from 0.713 ± 0.01 to 0.643 ± 0.0094.

First: VRFVVVRRFRLP
Second: VRGKYNNGNKKM
The protein stability index of the first is lower: 0.649 ± 0.0076 for the first, 0.675 ± 0.013 for the second.

VRGMGGIGRCVG and VRGRGSGGGVAG are within error of each other in protein stability index: 0.657 ± 0.074 for the first, 0.675 ± 0.065 for the second.

First: VRGVCGVGFGVW
Second: VRHYSSNFAPFI
The protein stability index of the first is lower: 0.604 ± 0.046 for the first, 0.676 ± 0.025 for the second.

VRIGSEGPGREE and VRLHVPLQRFMK are within error of each other in protein stability index: 0.677 ± 0.03 for the first, 0.73 ± 0.029 for the second.

First: VRLIQLLFTLRT
Second: VRLRGEGCGWGG
The protein stability index of the first is lower: 0.53 ± 0.062 for the first, 0.7158 ± 0.0022 for the second.

VRQKTPREQRVY and VRQRADSCEAHA are within error of each other in protein stability index: 0.701 ± 0.059 for the first, 0.659 ± 0.056 for the second.

VRQSCGSRGFFF and VRRAGVGEGITG are within error of each other in protein stability index: 0.729 ± 0.023 for the first, 0.671 ± 0.052 for the second.

VRRGGGGGGYGI and VRRGGRARRRGS are within error of each other in protein stability index: 0.72 ± 0.031 for the first, 0.698 ± 0.016 for the second.

Going from VRRHPQYPLLRV to VRSLLGLPLPGL, the protein stability index rises from 0.541 ± 0.0099 to 0.788 ± 0.041.

Compared with VRSSLDGDGLCG, VRTSGRCCPTGP is lower in protein stability index: 0.6869 ± 0.0046 for the first, 0.641 ± 0.036 for the second.

Compared with VRVFLSNALFHH, VRWCLPPLFTPL is higher in protein stability index: 0.596 ± 0.019 for the first, 0.693 ± 0.059 for the second.

Compared with VRWGVVGVQGNW, VRYGSHRNMSLL is higher in protein stability index: 0.678 ± 0.021 for the first, 0.819 ± 0.053 for the second.

Compared with VSDLGRFVDRRV, VSEFTSHQYDSE is higher in protein stability index: 0.636 ± 0.029 for the first, 0.746 ± 0.048 for the second.

VSGASHLCQYIK and VSGFEGCYFSDL are within error of each other in protein stability index: 0.724 ± 0.072 for the first, 0.712 ± 0.039 for the second.

Compared with VSGFFFWRSSFV, VSGLRRLVAFAR is lower in protein stability index: 0.678 ± 0.028 for the first, 0.518 ± 0.0061 for the second.

VSGVVHRVVVSR and VSLGNVGYFGSE are within error of each other in protein stability index: 0.7 ± 0.043 for the first, 0.734 ± 0.039 for the second.

VSLLSLRAFYKL and VSLSPVFLGFYR are within error of each other in protein stability index: 0.667 ± 0.05 for the first, 0.706 ± 0.024 for the second.

Compared with VSLVGGLGFGVG, VSQLGTYICSYL is higher in protein stability index: 0.553 ± 0.028 for the first, 0.687 ± 0.053 for the second.

VSRACYTPPQFY and VSRCHLLDLSLV are within error of each other in protein stability index: 0.68 ± 0.13 for the first, 0.642 ± 0.024 for the second.

VSRGHTEWVGMV and VSRWVVCRGGLW are within error of each other in protein stability index: 0.702 ± 0.11 for the first, 0.65 ± 0.078 for the second.

VSSVVTTSAIKR and VSTPSPPSDSTP are within error of each other in protein stability index: 0.715 ± 0.027 for the first, 0.685 ± 0.051 for the second.

First: VSTRSTVVVSSL
Second: VSVIPIVISLSL
The protein stability index of the first is higher: 0.662 ± 0.02 for the first, 0.528 ± 0.036 for the second.

VSVRGREGLDWK and VSVSDSKMARLG are within error of each other in protein stability index: 0.698 ± 0.019 for the first, 0.676 ± 0.055 for the second.

Going from VSVSRGTNCCYD to VSVSSFCVLQSC, the protein stability index falls from 0.686 ± 0.023 to 0.547 ± 0.008.

First: VSWGVALAVLRT
Second: VSYEFHTRVSKN
The protein stability index of the first is lower: 0.603 ± 0.029 for the first, 0.677 ± 0.039 for the second.

VSYEGIVKDGSG and VTDTFKFYCERL are within error of each other in protein stability index: 0.647 ± 0.083 for the first, 0.7274 ± 0.0051 for the second.

Compared with VTFFAFPLFFGF, VTHSASFSDVFR is higher in protein stability index: 0.602 ± 0.041 for the first, 0.731 ± 0.034 for the second.

VTKESPSLCLCV and VTLGLSMVQWTY are within error of each other in protein stability index: 0.588 ± 0.041 for the first, 0.5702 ± 0.0025 for the second.

VTLRASGQVFPF and VTMQEKTCQLEA are within error of each other in protein stability index: 0.7891 ± 0.0069 for the first, 0.705 ± 0.1 for the second.

Compared with VTRGGRVFIVDL, VVELRGEKLVGR is lower in protein stability index: 0.807 ± 0.094 for the first, 0.6784 ± 0.005 for the second.

VVEYCEGKAVYF and VVFISGVYCSRL are within error of each other in protein stability index: 0.695 ± 0.025 for the first, 0.688 ± 0.1 for the second.

VVFTTLRHPFRG and VVGCCVTKGGGA are within error of each other in protein stability index: 0.699 ± 0.027 for the first, 0.667 ± 0.048 for the second.

In the case of VVGRLRGNWGSI, the protein stability index is reported as 0.745 ± 0.039.
